Data set [1] can be described thus: folding stability dG unfold (combined trypsin and chymotrypsin); higher = more stable. In short, it runs like this:
(§1)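 Unfolding free energy was derived, per protease or combined, by relating Bayesian-fitted K50 values from sequencing counts to a sequence-predicted unfolded-state K50 and a shared folded-state K50. The underlying digests exposed cysteine-free mini-proteins under 80 residues, in a PA-tagged cDNA display construct, to trypsin and chymotrypsin at 11 threefold-diluted concentrations and to a no-protease condition. A filter kept only designs with AlphaFold2 dimer inter-PAE above 15.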

Data set [2] is described as follows: folding stability dG unfold from trypsin proteolysis; higher = more stable. In a few lines:
as §1

Data set [3] is described as follows: folding stability dG unfold from chymotrypsin proteolysis; higher = more stable. In a few lines: as §1

± gives the half width of the 95% confidence interval.

In the case of “SAGGSMNPSVSVEEEVFPDGVTRLKLTFSDGKELEAEVTRHADGNVQVTLYDKSPGKKTTYTIPLSSAGGSA [r2_99_JUSTAS]”, the figures for the “folding stability dG unfold” value in data set [1], in data set [2] and in data set [3] were 1.21 ± 0.21 kcal/mol, 0.65 ± 0.12 kcal/mol and 1.57 ± 0.22 kcal/mol, respectively.
The matching figures for “SAGGSMNPYSETITVNLPVPTPSGGSVVRPVTVPISIVYEDEKELEEALKKAKEEAEAAARKALGLESAGGS [r16_339_JUSTAS]”: 1.05 ± 0.11 kcal/mol, 1.37 ± 0.067 kcal/mol and 0.685 ± 0.069 kcal/mol.
The matching figures for “SAGGSMPPDTEIAVIRVEVRPPDGSTLPLLFTVPLEKVEEVAKEIAERLREKGYEVKVELAAVFPVSAGGSA [r2_274_TrMRF]”: 2.04 ± 0.11 kcal/mol, 2.06 ± 0.057 kcal/mol and 2.18 ± 0.06 kcal/mol.
Turning to “SAGGSMPPIVASVVEVRFYRFEEEDRERLEAEVTLKLKDGSTATIRLEFPDLSEEELLKTVEETLLSAGGSA [r2_26_JUSTAS]”, the figures for the “folding stability dG unfold” value in data set [1], in data set [2] and in data set [3] were 2.31 ± 0.043 kcal/mol, 1.78 ± 0.042 kcal/mol and 2.525 ± 0.022 kcal/mol, respectively.
Take “SAGGSMPVPYESKNVSPSGVEVSSTTYPYDFQIEKFPGSNPVITRTDPKTGEVTPIGTEEELEKLLKSAGGS [r8_232_JUSTAS]”: the “folding stability dG unfold” value in data set [1] is 0.0982 ± 0.13 kcal/mol; in data set [2], -0.172 ± 0.047 kcal/mol; in data set [3] it was 0.182 ± 0.21 kcal/mol.
Consider “SAGGSMSAEELREKIAADPRISLDDVTVTVTRTPDSVTVTVTLKDPNDPVYVEAEERARALFAELASAGGSA [r2_3_JUSTAS]”, for which the entries for the “folding stability dG unfold” value in data set [1], in data set [2] and in data set [3] were 0.16 ± 0.049 kcal/mol, 0.704 ± 0.024 kcal/mol and -1 ± 0.24 kcal/mol, respectively.
For “SAGGSMTAEELAEELAARHPDATVERSPSGVVTFRLPATGLTVTVSSGAGELRITVEDPTVPRRTLESAGGS [r16_478_JUSTAS]”, the “folding stability dG unfold” value was -0.312 ± 0.3 kcal/mol in data set [1], 0.0944 ± 0.27 kcal/mol in data set [2] and -0.527 ± 0.5 kcal/mol in data set [3].
Turning to “SAGGSMTAEELEGLPAEEIAELLPSDYTVSFIPETGLLVVEAPTRVVLATYNPAEGTVTLLEVRDASAGGSA [r2_470_TrMRF]”, the “folding stability dG unfold” value in data set [1] was determined as 0.91 ± 0.12 kcal/mol; in data set [2], 0.849 ± 0.086 kcal/mol; in data set [3], 0.819 ± 0.07 kcal/mol.
The matching figures for “SAGGSMTEEELEKKAKEIAEELEKKYKEENPNVEVKVTFEVIPEKGIIKITATSPKGKKLKEIIIPLLSAGG [r13_247_JUSTAS]”: 3.9 ± 0.31 kcal/mol, 3.74 ± 0.28 kcal/mol and 3.54 ± 0.23 kcal/mol.
Take “SAGGSMTEEERRALAEEIAKEVAEKISEEEGIPVKEILSIEVHPDGSVTITIKFPGTEGERTITIPRSAGGS [r16_622_JUSTAS]”: the “folding stability dG unfold” value in data set [1] turned out to be 2.27 ± 0.19 kcal/mol; in data set [2], 1.96 ± 0.067 kcal/mol; in data set [3] it was 2.38 ± 0.17 kcal/mol.
Take “SAGGSMTITITNEDGSTYEITVEEENGKLRITITVDGKTVEIEFDKETGKITIRYNGKTFTLTIKPSAGGSA [r2_194_TrROS_Hall]”: the “folding stability dG unfold” value came out at 5 ± 0.42 kcal/mol in data set [1], 3.85 ± 0.19 kcal/mol in data set [2] and 5.33 ± 0.13 kcal/mol in data set [3].
For “SAGGSMTITYDPETNTVTILDPNIPPNEPRPVTLTLPDGEKYTLTLRPVPGNGWTGTLTWKSTKDGSAGGSA [r2_89_TrMRF]”, the figures for the “folding stability dG unfold” value in data set [1], in data set [2] and in data set [3] were 1.27 ± 0.21 kcal/mol, 0.911 ± 0.05 kcal/mol and 1.54 ± 0.19 kcal/mol, respectively.
“SAGGSMTMTVEIHYPDGTVETRTVPYAPDDPAAAIAAVKAEVEARGGEVLAVETRDGVVTVKALVPPSAGGS [r16_662_JUSTAS]”: the “folding stability dG unfold” value in data set [1] was 2.72 ± 0.095 kcal/mol; in data set [2] it was 2.4 ± 0.07 kcal/mol; in data set [3] it was 3.01 ± 0.086 kcal/mol.
Turning to “SAGGSMTTITLTLEFELDENGEVDPEKIEAEAEKIKEENPEIKELTVEVKRDPNSNKITVTVTAKVPSAGGS [r8_258_JUSTAS]”, the “folding stability dG unfold” value in data set [1] was determined as 3.06 ± 0.18 kcal/mol; in data set [2] it was 2.79 ± 0.2 kcal/mol; in data set [3], 3.29 ± 0.19 kcal/mol.
For the sequence “SAGGSMTVVIVKLRPPDSPEVLYLPFRGRLPNGDWVPISLEELLEALEALPDLEVEEIIVAPPEEISAGGSA [r2_192_TrMRF]”, the “folding stability dG unfold” value was found to be 1.7 ± 0.23 kcal/mol in data set [1], 1.73 ± 0.16 kcal/mol in data set [2] and 1.74 ± 0.087 kcal/mol in data set [3].
As for “SAGGSMVIEAEIEFPDMTPEEVEERAEEIAEAAAEFARKKGFPIKKVEADVEVFPGEGVVKVTVTLEGSAGG [r13_212_TrMRF]”, the “folding stability dG unfold” value in data set [1] was determined as 0.611 ± 0.11 kcal/mol; in data set [2], 0.612 ± 0.043 kcal/mol; in data set [3] it was 0.204 ± 0.2 kcal/mol.
Turning to “SAGGSMVIRVETPEEAEEAARELAERLRELFPEVKELEIKVKVEVVDEETGEEKEYEFTIKLKLPPSAGGSA [r2_393_TrROS_Hall]”, the “folding stability dG unfold” value amounted to 2.62 ± 0.24 kcal/mol in data set [1], 2.54 ± 0.12 kcal/mol in data set [2] and 2.62 ± 0.098 kcal/mol in data set [3].
The matching figures for “SAGGSMVITITFPDGSTVTIPEEELLELLKKYGIEPDESDKEKVAKEAAKIIGEEKGIPIKEVKINSAGGSA [r2_83_JUSTAS]”: 3.01 ± 0.066 kcal/mol, 1.54 ± 0.059 kcal/mol and 3.43 ± 0.092 kcal/mol.
With “SAGGSMVKEIEIPVPEDWTPEDAVEAAREYLEANPELENVIVRFTLPDGTPLVVEIKPGGKIVKVTPESAGG [r13_690_JUSTAS]”, the results for the “folding stability dG unfold” value in data set [1], in data set [2] and in data set [3] were 2.83 ± 0.15 kcal/mol, 1.71 ± 0.069 kcal/mol and 3.26 ± 0.07 kcal/mol, respectively.
In the same order, the values of “SAGGSMVRVTIEDKDGKEHWIMIPPGMDPNDVKQQIKKFLEDNGWKVKDVEVETYPPGWAMIRVRVSAGGSA [r2_148_TrROS]” are 2.2 ± 0.052 kcal/mol, 1.88 ± 0.021 kcal/mol and 2.33 ± 0.031 kcal/mol.
Consider “SAGGSMVSEEEIKEIVEKTAAELPEDAVEPVTVTIELPNPDGTTTVLTITITRSPTSISYTVSSSPAASAGG [r19_220_JUSTAS]”, for which the “folding stability dG unfold” value worked out at 3.34 ± 0.039 kcal/mol in data set [1], 3.56 ± 0.11 kcal/mol in data set [2] and 3.27 ± 0.048 kcal/mol in data set [3].
In the same order, the values of “SAGGSMVVTETLVETLTETLTFPDGTPVTVTVPVTVTVEVYLPEPPAPPPLPFSRLAEELGDPALVSAGGSA [r2_340_JUSTAS]” are -0.623 ± 0.15 kcal/mol, -0.838 ± 0.26 kcal/mol and -0.661 ± 0.43 kcal/mol.
Take “SAGGSNPNMFRLKVEIEPYEYRDPDGQPKARVWKIDIEMEPGMPPNMAKNIASNFQNRGLPVKIEPSAGGSA [r2_456_TrROS]”: the “folding stability dG unfold” value in data set [1] was found to be 0.578 ± 0.16 kcal/mol; in data set [2], 0.102 ± 0.18 kcal/mol; in data set [3] it was 0.689 ± 0.12 kcal/mol.
On to “SAGGSPARPVLVTITLPDGEEVTRRMTLEEIERLVAKDPNVKVTIELPDGSVYTVDPNTGTITKAPSAGGSA [r2_222_JUSTAS]”, for which the results for the “folding stability dG unfold” value in data set [1], in data set [2] and in data set [3] were 2.63 ± 0.14 kcal/mol, 2.84 ± 0.075 kcal/mol and 2.49 ± 0.026 kcal/mol, respectively.
For “SAGGSPATVLSSSTLSTTPLPDGTTLTTSETVTLLPNGEPVVTTTTTTTAPDGSVTTTTTTTPLDAASAGGS [r16_261_JUSTAS]”, the results for the “folding stability dG unfold” value in data set [1], in data set [2] and in data set [3] were 0.885 ± 0.047 kcal/mol, 1.05 ± 0.043 kcal/mol and 0.671 ± 0.043 kcal/mol, respectively.
Regarding “SAGGSPDIKFNEVKVELPTAETEAEFEKNTYKVEVPAPPELDITTTTTLTTSSGSTTTTTSTSPLELPSAGG [r13_191_JUSTAS]”, the entries for the “folding stability dG unfold” value in data set [1], in data set [2] and in data set [3] were -0.304 ± 0.11 kcal/mol, 0.0505 ± 0.06 kcal/mol and -1.11 ± 0.79 kcal/mol, respectively.
The matching figures for “SAGGSPEVKIEIEVTERVTVFDENGKPVEEVLVVKAKITFPDGTTATITAFFYEGKWFITSIELEPSAGGSA [r2_158_TrROS_Hall]”: 4.62 ± 0.27 kcal/mol, 3.84 ± 0.25 kcal/mol and 4.83 ± 0.24 kcal/mol.
In the same order, the values of “SAGGSPEVKVLLFYDPATGERVVVVVTYDPATGEKKVLVFVESRPELVELVKKLLEDLGYEVEVVPSAGGSA [r2_30_TrMRF]” are 3.63 ± 0.11 kcal/mol, 3.39 ± 0.19 kcal/mol and 3.82 ± 0.16 kcal/mol.
Turning to “SAGGSPGQPYYIMIKLEWENPEDGEEHTFDIMFPVKSAEDAKDYILKELLPPGHKLKIDDISIMPMSAGGSA [r2_320_TrROS]”, the “folding stability dG unfold” value in data set [1] is 1.4 ± 0.15 kcal/mol; in data set [2] it was 1.48 ± 0.022 kcal/mol; in data set [3], 1.19 ± 0.1 kcal/mol.
In the case of “SAGGSPGSSLIGKKKLTIKVDNKDVEVEVTTSLSFLPSNQVTTSTEVKITLPNGKKIPKSLVEKLLSAGGSA [r2_363_JUSTAS]”, the figures for the “folding stability dG unfold” value in data set [1], in data set [2] and in data set [3] were 0.742 ± 0.12 kcal/mol, 0.711 ± 0.044 kcal/mol and 0.66 ± 0.17 kcal/mol, respectively.
With “SAGGSPHVSTDAADPELAARLLREAFGTDEVPLVRRDPTTGALLAFLPATGRLVWTDRTTVRVEPSSAGGSA [r2_205_TrMRF]”, the “folding stability dG unfold” value is 0.13 ± 0.074 kcal/mol in data set [1], 0.325 ± 0.13 kcal/mol in data set [2] and -0.0869 ± 0.13 kcal/mol in data set [3].
With “SAGGSPIIRVKVTYYPPDGSVTVYLPADSVDELIDALNSVPDIPVTPTDGDTIIASTPDAIVEITVESSAGG [r13_143_TrMRF]”, the “folding stability dG unfold” value in data set [1] turned out to be 0.717 ± 0.097 kcal/mol; in data set [2], 0.471 ± 0.031 kcal/mol; in data set [3] it was 0.849 ± 0.032 kcal/mol.
With “SAGGSPIQTAVTTNTLGNETITTTTLVPPEAVATSVTTVYEPDPNSDNYVVKSVLTTTTSTLPPSDAASAGG [r13_568_JUSTAS]”, the entries for the “folding stability dG unfold” value in data set [1], in data set [2] and in data set [3] were -0.0865 ± 0.062 kcal/mol, -0.417 ± 0.055 kcal/mol and 0.0608 ± 0.067 kcal/mol, respectively.
As to “SAGGSPISLEVSTSTLPDGTLRVTTTATSPDSSRSYTVTLDFPPSQPEEIPARAAAEAAAIAADPAVASAGG [r13_968_JUSTAS]”, the entries for the “folding stability dG unfold” value in data set [1], in data set [2] and in data set [3] were 0.907 ± 0.086 kcal/mol, -0.552 ± 0.19 kcal/mol and 1.35 ± 0.058 kcal/mol, respectively.
As to “SAGGSPMRIRDVEIEEFDPDAGRIEIRFPSNGNTIKIPIPPGHKSLKIKIRMKNGEPFEQTITIPPSAGGSA [r2_132_TrROS]”, the entries for the “folding stability dG unfold” value in data set [1], in data set [2] and in data set [3] were 1.01 ± 0.22 kcal/mol, 0.578 ± 0.14 kcal/mol and 1.08 ± 0.12 kcal/mol, respectively.
In the same order, the values of “SAGGSPPPLRITYKIRMGGQPFEWTIPIPADDLPPGQQIEIDIRIKKMDPENNRMRMEIDDVEVTPSAGGSA [r2_479_TrROS]” are 0.76 ± 0.19 kcal/mol, -0.209 ± 0.32 kcal/mol and 0.979 ± 0.27 kcal/mol.

For the origin of these results see the supplement of paper PMC12764529.
